Values joined by “and” are separate entries in the source; they are usually repeats but may differ in a detail not shown here. Identical values can stand only once.
Tests used:
[1] = target: T1, fibroblast-derived native IFN-β (Homo sapiens, UniProt P01574); settings: partially purified native interferon; cited from earlier work
T1 construct: host or cells: human fibroblasts (natural producer)

Soybean Agglutinun = target: T2, Soybean Agglutinun (soybean, UniProt P05046 33-285, biotinylated (sites not given)); assay: dot blot, probed with biotinylated lectin
T2 construct: Bought biotinylated lectin; also called SBA
T2 sequence (P05046 33-285 limits assumed): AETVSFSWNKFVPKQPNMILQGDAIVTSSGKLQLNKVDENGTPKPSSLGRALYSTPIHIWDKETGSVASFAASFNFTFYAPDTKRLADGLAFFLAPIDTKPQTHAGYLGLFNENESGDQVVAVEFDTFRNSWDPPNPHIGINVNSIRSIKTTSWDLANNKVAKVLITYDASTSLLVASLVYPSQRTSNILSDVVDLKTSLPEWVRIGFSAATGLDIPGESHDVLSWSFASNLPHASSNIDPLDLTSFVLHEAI
Experimental: Finally, IFN-β-1b lot A was tested for binding to biotinylated lectins from Vector Laboratories.

[2] = test system: human amnionic cell line WISH infected with VSV; type: cell-based, vesicular stomatitis virus; settings: WISH cells infected with VSV, viral plaque reduction
[3] = IFN-β specific activity, assay not stated
EAE = settings: rodent EAE; cited from earlier work
MxA gene = MxA gene induction assay (ICLA); type: cell-based, human
From the text: Based on the specific induction of the MxA gene by type I IFNs in cultured human cells (Von Wussow, P. et al. (1990) Eur. J. Immunol. 20:2015-2019; and Simon, A. et al. (1991) J. Interferon Res. 11:215-219), an immunochemiluminometric (“ICLA”) assay was developed by Files, J. G. et al. (1998) J. Interferon Res. 18:1019-1024. The ICLA assay, which is based on the procedure of Oh, S. K. et al. (1994) J. Immunol. Meth. 176:79-91, detects MXa protein in cell lysates using two non-competing anti-MxA monoclonal antibodies, one of which is conjugated with acridinium ester, which is detected in a luminometer. The MxA gene induction ICLA assay procedure used herein is described in detail in Files, J. G. et al. (1998) supra.

T1 sequence (P01574 22-187): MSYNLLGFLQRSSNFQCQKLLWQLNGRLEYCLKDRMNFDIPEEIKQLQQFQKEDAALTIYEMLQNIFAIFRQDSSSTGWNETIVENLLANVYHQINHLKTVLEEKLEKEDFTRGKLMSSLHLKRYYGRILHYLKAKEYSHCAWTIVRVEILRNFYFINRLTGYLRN

CC(=O)N[C@H]1[C@H]([C@H](O)[C@H](O)CO)OC(O)(C(=O)O)C[C@@H]1O (stereo partly shown) [sialic acid, N-acetylneuraminic acid]
effect on antiviral activity of native IFN-β [1]: not

(N-acetylneuraminosyl)galactosylglucosylceramide [GM3]
effect on antiviral activity of native IFN-β [1]: abolished

B1: peak IFN-β-1b (fraction 5) from the Con A Sepharose column (ligand)
chain: MSYNLLGFLQRSSNFQSQKLLWQLNGRLEYCLKDRMNFDIPEEIKQLQQFQKEDAALTIYEMLQNIFAIFRQDSSSTGWNETIVENLLANVYHQINHLKTVLEEKLEKEDFTRGKLMSSLHLKRYYGRILHYLKAKEYSHCAWTIVRVEILRNFYFINRLTGYLRN
notes: Same polypeptide as IFN-β-1b lot A, after Con A Sepharose chromatography removed most of the non-covalently attached carbohydrate; The note on Met1 for m1 applies here too; also called IFN-β-1b lot A further purified by Con A Sepharose column chromatography
binding result (Soybean Agglutinun): no binding

B2: peak IFN-β-1b (fraction 5): IFN-β-1b lot A further purified by Con A Sepharose column chromatography, peak fraction 5, carbohydrates largely removed (protein, UniProt P01574 22-187, looked up, variant C17S)
Interferon beta: B1 chain
modifications: interferon beta-1b; deglycosylated fraction
notes: IFN-β-1b lot A further purified by Con A Sepharose column chromatography, peak fraction 5, carbohydrates largely removed
specific activity [2]: 3.6×10^7 IU/mg

B3: IFN-β-1b: recombinant human IFN-β expressed in E. coli with Cys17 to Ser17 substitution, 165 amino acids, not glycosylated (SEQ ID NO: 2) (protein, listed as Homo sapiens)
chain: B1 chain
specific activity [3]: 2 to 3×10^7 IU/mg and ~3×10^7 IU/mg
in vivo efficacy in EAE models (EAE): shows in vivo efficacy

B4: IFN-β-1aSER17: IFN-β-1a in which Cys17 is replaced by Ser17, expressed in CHO cells, purified by affinity chromatography (protein, UniProt P01574 22-187, looked up, variant C17S)
Interferon beta: B1 chain
decrease in specific activity (MxA gene; PNGase F-mediated deglycosylation, non-reducing or reducing conditions, FIG. 2B): 30-35%
effect on specific activity of overnight incubation alone (MxA gene; overnight (18 hours) incubation, FIG. 2B): not adversely affected
specific activity (MxA gene; product label specific activity of reconstituted IFN-β-1b/Betaseron® as IFN standard, FIG. 2A): 1.3 to 2.4×10^8 IU/mg
reduction in specific activity (MxA gene; reduction in the presence of SDS followed by spontaneous reoxidation, FIG. 2B): ~20%

From patent US20050008616A1, “Recombinant human interferon-beta-1b polypeptides” (Schering Aktiengesellschaft, priority 2003, published 2005)
